Measured values: US20080103086A1, “METHODS FOR THE TREATMENT OF DISEASES ASSOCIATED WITH THE SECRETION OF HMGB1” (priority 2006, published 2008)

Tests used:
[1] = tested on: HMGB1 secretion; assay: Inhibition of HMGB1 secretion by Protein Kinase C inhibitor in LPS-treated RAW 264.7 cells (Western blot of supernatants); assay type: cell-based, Murine; conditions: 200 ng/mL LPS combined with inhibitor, 16 h, Go 6983 0.1 to 10 μM
Protocol: RAW 264.7 cells were treated with 200 ng/mL of LPS alone or combined with Gö 6983 (PKC inhibitor) at the indicated concentrations (μM) for 16 h. SB203580 (p38 inhibitor), PD098059 (ERK1/2 inhibitor), Bay 11-7082 (NF-κB inhibitor) were used for comparison. The supernatants were harvested and separated with 12% SDS-PAGE and Western blot was performed to observe the level of HMGB1.
To analyze the secretion of HMGB1 in the supernatants, culture media were replaced with serum-free OPTI-MEM (Gibco BRL) medium and concentrated with Amicon Centricon filtration (Millipore) after removing cell debris, and Western blot analysis was performed. The cytoplasmic and nuclear fractions from 5×10^6 cells were separated using a digitonin-based method (Bird, C. H. et al, Mol Cell Biol 21:5396-5407 (2001)) to observe the levels of HMGB1 in each fraction. The cells were lysed using 1% Nonidet P-40 buffer containing a protease inhibitor cocktail (Sigma), and the protein concentrations were measured by Bradford assay (Biorad) for the analysis of whole cell lysates (WCLs). The protein samples underwent 12% SDS-PAGE and were transferred to a nitrocellulose membrane. Western blot analysis was performed using rabbit anti-HMGB1 (BD Pharmingen) and HRP-labeled goat anti-rabbit Ig as primary and secondary antibodies, respectively.
To observe the inhibition of HMGB1 secretion by PKC inhibitor, RAW 264.7 cells were treated with 200 ng/mL of LPS alone or combined with Gö 6983 (Calbiochem), a conventional PKC (α, β, and γ) inhibitor including PKCδ and PKCζ, at the indicated concentrations for 16 h. Other inhibitors of SB203580 (p38 inhibitor, Calbiochem), PD098059 (ERK1/2 inhibitor, Calbiochem), Bay 11-7082 (NF-κB inhibitor, Calbiochem) were included. The supernatants were harvested and separated with 12% SDS-PAGE and Western blot was performed to observe the level of HMGB1.

[2] = biological target: six His-tagged wild type HMGB1 (UniProt P09429)
[3] = biological target: six His-tagged HMGB1 NLS1/2A, not tagged with GFP (UniProt P09429)
[4] = biological target: T1, GST-KAP-α1 fusion protein (human, UniProt P52294 1-538); assay: GST pull-down with GST-KAP-α1 on glutathione-Sepharose beads, anti-His blot
T1 construct: Produced in E. coli BL21, immobilized on glutathione-Sepharose 4B beads; the primers start at the ATG of the coding region; not shown: glutathione S-transferase (GST) tag encoded by vector pGEX-4T-1 (Pharmacia)
T1 sequence (P52294 whole entry, the tested form may be a part): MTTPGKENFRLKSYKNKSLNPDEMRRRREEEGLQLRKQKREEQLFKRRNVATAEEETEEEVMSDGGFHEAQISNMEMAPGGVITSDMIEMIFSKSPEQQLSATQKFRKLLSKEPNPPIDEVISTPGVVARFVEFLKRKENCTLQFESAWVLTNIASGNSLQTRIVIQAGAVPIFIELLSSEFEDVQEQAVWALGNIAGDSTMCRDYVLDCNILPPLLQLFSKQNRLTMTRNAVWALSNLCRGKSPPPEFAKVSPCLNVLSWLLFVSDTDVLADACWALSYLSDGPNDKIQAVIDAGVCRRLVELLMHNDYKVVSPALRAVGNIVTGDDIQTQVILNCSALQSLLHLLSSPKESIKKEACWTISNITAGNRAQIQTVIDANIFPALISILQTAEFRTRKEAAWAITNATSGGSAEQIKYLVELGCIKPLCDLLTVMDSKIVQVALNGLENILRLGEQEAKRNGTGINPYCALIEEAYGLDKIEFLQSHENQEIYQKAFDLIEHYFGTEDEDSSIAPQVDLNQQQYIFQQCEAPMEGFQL
Protocol: Direct binding of recombinant HMGB1 protein to KAP-α1 was tested to exclude the possibility that other HMGB1-interacting proteins present in cell lysates could have a role in binding. Purified six His-tagged wild type HMGB1 protein and boxes A (aa 1-87) and B (aa 88-162) proteins, which were identified at expected size by Coomassie blue staining (FIG. 4B, left), were purified from E. coli BL21. Same molar amounts of all wild and truncated forms of HMGB1 were added to GST-KAP-α1, and GST pull-down assay was performed.

[5] = biological target: T2, Flag-tagged KAP-α1 (human, UniProt P52294 1-538); assay: co-immunoprecipitation from co-transfected RAW 264.7 cells, Western blot (summed up in Example 7)
T2 construct: Expressed in co-transfected RAW 264.7 cells; used in co-immunoprecipitation; also called FLAG-KAP-α1; not shown: Flag tag of vector pCMV-Tag2 (Stratagene)
T2 sequence (P52294 whole entry): as the sequence (P52294 whole entry, the tested form may be a part) above
Protocol: (§1) To observe the binding of KAP protein to each mutant HMGB1 in the cells, Flag-tagged KAP-α1 and each mutant HMGB1-GFP plasmid were co-transfected into RAW 264.7 cells. Cell homogenates of transfected RAW 264.7 cells were harvested and incubated with mouse anti-Flag (M2, Sigma) and mouse anti-GFP (Santa Cruz) at 4° C. overnight. Immune complexes were collected and the membranes were blotted with anti-Flag and anti-GFP, respectively. The reciprocal experiment was also performed. GST was used as a negative control. And to test the direct binding of HMGB1 to KAP-α1, GST pull-down assay was performed as described above.
(§2) To observe the effect of phosphorylation in both NLS regions of HMGB1 on the binding to KAP-α1 and on the subcellular localization of HMGB1 in the transfected cells, a number of site-directed mutations in six serines of NLS1 and NLS2 were generated using a HMGB1-GFP fusion construct plasmid (FIG. 5A). Serines 35, 39, 42, 46, 53 within or close to NLS1 and serine 181 at NLS2 were alternatively or totally mutated into alanine or glutamic acid. Substitution with alanine and glutamic acid simulated unphosphorylated and a phosphorylated states, respectively. RAW 264.7 cells were co-transfected with a Flag-tagged KAP-α1 plasmid and each mutant HMGB1-GFP plasmid, and immunoprecipitates using anti-GFP (FIG. 5B) or anti-Flag (FIG. 5C) were analyzed with anti-Flag for KAP-α1 or anti-GFP for HMGB1.

[6] = biological target: T2, Flag-tagged KAP-α1; assay: co-immunoprecipitation from co-transfected RAW 264.7 cells (anti-GFP and anti-Flag), Western blot
Protocol: as §1, §2

Cc1ccc(S(=O)(=O)/C=C/C#N)cc1 [Bay 11-7082]
levels of HMGB1 in the culture supernatants (HMGB1 secretion) [1]: decreased in a concentration-dependent manner

COc1ccc2c(c1)c(C1=C(c3c[nH]c4ccccc34)C(=O)NC1=O)cn2CCCN(C)C [Go 6983, 2-[1-(3-dimethylaminopropyl)-5-methoxyindol-3-yl]-3-(1H-indol-3-yl) Maleimide]
levels of HMGB1 in the culture supernatants (HMGB1 secretion) [1]: decreased to undetectable level
levels of HMGB1 in the culture supernatants (HMGB1 secretion) ([1]; listed as Go6983): the secretion of HMGB1 was inhibited

COc1cccc(-c2cc(=O)c3ccccc3o2)c1N [PD098059]
levels of HMGB1 in the culture supernatants (HMGB1 secretion) [1]: no change of HMGB1 secretion

C[S+]([O-])c1ccc(-c2nc(-c3ccncc3)c(-c3ccc(F)cc3)[nH]2)cc1 (stereo not shown) [SB203580]
levels of HMGB1 in the culture supernatants (HMGB1 secretion) [1]: no change of HMGB1 secretion

Cdc2 kinase (New England BioLabs)
in vitro protein kinase assay ([γ-32P]ATP, autoradiography) [2]: CK II and cdc2 showed no phosphorylation of HMGB1

casein kinase II (CK II) (New England BioLabs)
in vitro protein kinase assay ([γ-32P]ATP, autoradiography) [2]: CK II and cdc2 showed no phosphorylation of HMGB1

protein kinase C (PKC) protein (Upstate)
in vitro protein kinase assay ([γ-32P]ATP, autoradiography) [2]: PKC phosphorylated WT HMGB1
in vitro protein kinase assay ([γ-32P]ATP, autoradiography) [3]: showed little or no phosphorylation compared to the WT HMGB1

B1: six His-tagged HMGB1 box B (aa 88-162) (other, human, UniProt P09429 88-162, looked up, not shown: small tags and cut ends)
chain: KFKDPNAPKRPPSAFFLFCSEYRPKIKGEHPGLSIGDVAKKLGEMWNNTAADDKQPYEKKAAKLKEKYEKDIAAY
notes: range 88-162
binding result [4]: no binding

B2: HMGB1 NLS1/2A (HMGB1-GFP mutant) (other, human, UniProt P09429 1-215, looked up)
chain: MGKGDPKKPRGKMSSYAFFVQTCREEHKKKHPDAAVNFAEFAKKCAERWKTMAAKEKGKFEDMAKADKARYEREMKTYIPPKGETKKKFKDPNAPKRPPSAFFLFCSEYRPKIKGEHPGLSIGDVAKKLGEMWNNTAADDKQPYEKKAAKLKEKYEKDIAAYRAKGKPDAAKKGVVKAEKAKKKKEEEEDEEDEEDEEEEEDEEDEDEEEDDDDE
notes: not shown: EGFP of pEGFP-N1 and linker
interaction relative to wild-type [5]: ≥ 50 % of wild-type

B3: HMGB1 NLS2A (HMGB1-GFP mutant) (other, human, UniProt P09429 1-215, looked up)
chain: MGKGDPKKPRGKMSSYAFFVQTCREEHKKKHPDASVNFSEFSKKCSERWKTMSAKEKGKFEDMAKADKARYEREMKTYIPPKGETKKKFKDPNAPKRPPSAFFLFCSEYRPKIKGEHPGLSIGDVAKKLGEMWNNTAADDKQPYEKKAAKLKEKYEKDIAAYRAKGKPDAAKKGVVKAEKAKKKKEEEEDEEDEEDEEEEEDEEDEDEEEDDDDE
notes: as for B2
interaction relative to wild-type [5]: ≥ 50 % of wild-type

B4: HMGB1 NLS1/2E (HMGB1-GFP mutant) (other, human, UniProt P09429 1-215, looked up)
chain: MGKGDPKKPRGKMSSYAFFVQTCREEHKKKHPDAEVNFEEFEKKCEERWKTMEAKEKGKFEDMAKADKARYEREMKTYIPPKGETKKKFKDPNAPKRPPSAFFLFCSEYRPKIKGEHPGLSIGDVAKKLGEMWNNTAADDKQPYEKKAAKLKEKYEKDIAAYRAKGKPDAAKKGVVKAEKEKKKKEEEEDEEDEEDEEEEEDEEDEDEEEDDDDE
notes: as for B2
binding result [6]: no binding

B5: HMGB1 NLS1E (HMGB1-GFP mutant) (other, human, UniProt P09429 1-215, looked up)
chain: MGKGDPKKPRGKMSSYAFFVQTCREEHKKKHPDAEVNFEEFEKKCEERWKTMEAKEKGKFEDMAKADKARYEREMKTYIPPKGETKKKFKDPNAPKRPPSAFFLFCSEYRPKIKGEHPGLSIGDVAKKLGEMWNNTAADDKQPYEKKAAKLKEKYEKDIAAYRAKGKPDAAKKGVVKAEKSKKKKEEEEDEEDEEDEEEEEDEEDEDEEEDDDDE
notes: as for B2
interaction relative to wild-type [5]: ≥ 50 % of wild-type
interaction relative to wild-type [6]: ~50 % of wild-type

B6: HMGB1 NLS2E (HMGB1-GFP mutant) (other, human, UniProt P09429 1-215, looked up)
chain: MGKGDPKKPRGKMSSYAFFVQTCREEHKKKHPDASVNFSEFSKKCSERWKTMSAKEKGKFEDMAKADKARYEREMKTYIPPKGETKKKFKDPNAPKRPPSAFFLFCSEYRPKIKGEHPGLSIGDVAKKLGEMWNNTAADDKQPYEKKAAKLKEKYEKDIAAYRAKGKPDAAKKGVVKAEKEKKKKEEEEDEEDEEDEEEEEDEEDEDEEEDDDDE
notes: as for B2
interaction relative to wild-type [5]: ≥ 50 % of wild-type
interaction relative to wild-type [6]: ~50 % of wild-type

B7: HMGB1 NLS1A (HMGB1-GFP mutant) (other, human, UniProt P09429 1-215, looked up)
chain: MGKGDPKKPRGKMSSYAFFVQTCREEHKKKHPDAAVNFAEFAKKCAERWKTMAAKEKGKFEDMAKADKARYEREMKTYIPPKGETKKKFKDPNAPKRPPSAFFLFCSEYRPKIKGEHPGLSIGDVAKKLGEMWNNTAADDKQPYEKKAAKLKEKYEKDIAAYRAKGKPDAAKKGVVKAEKSKKKKEEEEDEEDEEDEEEEEDEEDEDEEEDDDDE
notes: as for B2
interaction relative to wild-type [5]: ≥ 50 % of wild-type

B8: six His-tagged HMGB1 box A (aa 1-87) (other, human, UniProt P09429 1-87, looked up)
chain: MGKGDPKKPRGKMSSYAFFVQTCREEHKKKHPDASVNFSEFSKKCSERWKTMSAKEKGKFEDMAKADKARYEREMKTYIPPKGETKK
notes: range 1-87; Includes NLS1 (aa 28-44); Purified from E. coli BL21; also called boxes A (aa 1-87); not shown: 6×His tag and vector-encoded residues of pRSETB (Invitrogen)
binding result [4]: no binding
